Test results as given in patent US11001846B2, “Aptamers, nucleic acid molecules, polynucleotides, synthetic antibodies compositions for detecting PRRS viruses and treating PRRS virus infection” (AEROVIRUS TECHNOLOGIES INC., priority 2015, dated 2021).
Entries after “also recorded” stand apart in the source; their conditions may differ.

Tests used:
[1] = system: LHVA-93-3 PRRS virus; assay: In-vivo lung virus titer, LHVA-93-3, comparison with control oligonucleotide and Tilmicosin (Example 4); design: species or system swine; conditions: for change in lung virus titer: LHVA-93-3, FIG. 13b
Procedure: Swine were inoculated intranasally with sub-lethal infectious fluid containing 40TCID50/ml PRRS virus (LHVA-93-3) with or without 2.5 nmole A505 aptamer for different time intervals. Pig body weight was monitored for 2 weeks. Viral titer in the lungs was determined by the CPE titration method (OIE Terrestrial Manual—May 2015, Chapter 2.8.7—Porcine Reproductive and Respiratory Syndrome, section 1.1.3). Other pigs were sacrificed 6 days following viral inoculation and lungs were removed and homogenized in PBS 0.1% BSA (10% w/v). Following homogenization, samples were centrifuged to remove debris and stored at −80° C.
The cells/viruses were incubated for 2-5 days and observe daily for a CPE. At day 2, seed macrophages in new microtitre plates. Fifty (50) μl of the supernatants were transferred from the plates of the first passage to the corresponding wells of the freshly seeded plates (second passage). The wells were incubated for 2-5 days and observed daily for a CPE. The results of the CPE assays were presented as log TCID50.
Tilmicosin (Pulmotil®) was purchased from Eli Lilly (Elanco®), Canada.
Were implemented as described hereinabove. A dose of 15 ug/Kg of A505 was used.
The ability of the A505 aptamer to inhibit PRRSV infection was also compared to that of one of the currently available “anti-PRRSV” drugs, the antibiotic Tilmicosin. To this end, both A505 and Tilmicosin were administered once, together with the virus, using the intra-nasal route. As is shown in Table 2 below, a dose of 60 mg/pig of Tilmicosin (1 mg/kg body weight) reduced virus titer by 0.42 log TCID50, representing a 2.6-fold reduction in virus burden. This is in comparison to a reduction by 1.21 log TCID50 affected by A505 in this particular experiment (over 10 fold reduction in virus burden).

[2] = system: M-S-S-GP5 peptidic complex; assay: ELISA reverse screening: binding to M-S-S-GP5 peptidic complex, type 1; design: species or system type 1 PRRSV (Lelystad); conditions: type 1 PRRSV complex
Procedure: (§1) ssDNA aptamers were denatured at 80° C. for 10 min and then cooled on ice for 10 min. Aptamers (30 nmole) were mixed with 25 μg of M-S-S-GP5 peptidic complex (further described in Example 6 below) in 500 μl selection buffer (50 mM Tris-HCl; pH 7.4, 5 mM KCl, 100 mM NaCl, 1 mM MgCl2 tRNA, 0.2% BSA) at 37° C. for 30 min. Aptamer-peptide complex was purified by adding the 25 μl Ni-NTA superflow and amplified by PCR using primers directed to the common T3 sequences in the aptamer library, and 3′-primer (i.e. -[…]-3′). SELEX was repeated 3 times, following which amplified nucleotides were transformed into E. coli. PCR conditions for SELEX included 5 min 95° C./1 min 95° C./1 min 55° C./1 min 72° C./10 min 72° C. and 100 pmole of each primer.
Selected ssDNA molecules from each individual clone were biotinylated using the B-T3 which is same sequence with 5′ primer (T3 primer), and Klenow fragment (2 unit/ml). To prepare single stranded biotin conjugated CoocSeq5 aptamer for the reverse screening, T3 Primer was Biotin labelled. A 96-well flat bottom ELISA plate was prepared by coating each well with 100 μl of streptavidin (100 μg/ml) diluted in 0.1 M NaHCO3 following by a 37° C. overnight incubation. Following several washings with PBS, wells were blocked with 200 μl of PBS containing 1% BSA for 2 hours at room temperature and subsequent washing three times with PBS-T (10 mM PBS containing 0.05% (v/v) Tween-20). Thereafter, 100 μl of 2.5 pmole/100 μl biotinylated-ssDNA were added to the wells and incubated at 37° C. for 2 hours followed by washing four times with PBS-T. T3 primer was used as negative control. Following washing, 100 μl of fluid containing 2 μg histidine labelled M-S-S-GP5 peptidic complex were added to the indicated wells and incubated at 37° C. for 2 hours. The wells were then washed for 4 times with PBS-T. The reverse screening assay was completed by ELISA. […]

[3] = system: type 1 (Lelystad) PRRSV; conditions: after MTT screening of 10 candidates
Description: (§2) Using various tetrazolium (MTT) colorimetric assay procedures^[xxxvi], these aptamers have been “screened” to identify the ones having the highest and fastest binding capabilities for detection and therapeutics purposes for both types of PRRSV. It should be pointed out that the aptamer having the quickest binding efficiency but not necessarily the highest binding strength is the most suitable one for the biosensor.

[4] = system: type 2 PRRSV; conditions: after MTT screening of 10 candidates
Description: as §2

[5] = system: LHVA-3 PRRS virus; assay: MTT assay, in vitro protection of PAMs or MARC-145 cells from LHVA-3 infection; type: cell-based, PRRSV; conditions: 500 pmole; LHVA-3 and NVSL; FIG. 9b
Procedure: PAMs or MARC-145 cells were plated in 96 well plates (7×10^4/well) one day prior to the assay. […] Following infection, cells were incubated in growth medium at 37° C. for 72 hours. MTT assay was performed by adding 4 mg/ml MTT (3-[4,5-Dimethylthiazol-2-yl]-2,5-diphenyltetrazolium bromide dissolved in PBS to the cell cultures and incubation at 37° C. for 3 hours. Plates were then centrifuged at 800×g for 10 min. Supernatants were aspirated and the formazan dye was dissolved in 150 μl/well of isopropyl alcohol, and O.D. values were determined with an ELISA reader at 570 nm.
In Vitro Viral Protection Prior to Viral Infection PAMs or MARC-145 cells were plated on 96 well plates (7×10^4/well) 24 hours prior to the experiment. Each well was washed twice with DPBS prior to treating the cells with various amounts of A505 (12.5 to 2000 pmole) at 37° C. for the indicated time points. […] Following incubation, cells were transferred to growth medium and incubated at 37° C. for 72 hours. Thereafter an MTT assay was implemented as described.
In Vitro Viral Protection Following Viral Infection—PAMs or MARC-145 cells were plated on 96 well plates (7×10^4/well) 24 hours prior to viral infection. Viral infection was effected as described above. Infected cells were gently washed with DPBS for 3 times. Cells were then treated with various amounts of A505 (12.5 to 2000 pmole) for 1 hour at 37° C. Following incubation, cells were transferred to growth medium and incubated at 37° C. for 72 hours. Thereafter an MTT assay was implemented as described.

[6] = system: M-S-S-GP5 peptidic complex; assay: ELISA reverse screening: binding to M-S-S-GP5 peptidic complex, type 2; conditions: type 2 PRRSV complex
Procedure: as §1
Selected ssDNA molecules from each individual clone were biotinylated using the B-T3 which is same sequence with 5′ primer (T3 primer), and Klenow fragment (2 unit/ml). To prepare single stranded biotin conjugated CoocSeq5 aptamer for the reverse screening, T3 Primer was Biotin labelled. A 96-well flat bottom ELISA plate was prepared by coating each well with 100 μl of streptavidin (100 μg/ml) diluted in 0.1 M NaHCO3 following by a 37° C. overnight incubation. Following several washings with PBS, wells were blocked with 200 μl of PBS containing 1% BSA for 2 hours at room temperature and subsequent washing three times with PBS-T (10 mM PBS containing 0.05% (v/v) Tween-20). […]
High binding capacity ELISA plates (Immunoplate, Nunc) were coated with 100 μl allantoic fluid containing 500 TCID50 of various PRRS virus strains diluted in phosphate buffered saline (PBS) by incubating at 4° C. overnight. […] Following this incubation period, plates were washed five times in PBS-T and bound antibodies were detected using horseradish peroxidase labelled goat anti-mouse IgG conjugates (HRP). […] Reaction was terminated with 50 μl of 2M H2SO4, plates were read with a multichannel spectrophotometer at 570 nm.

[7] = system: intact PRRS virus (LHVA-93-3); assay: ELISA binding to intact PRRS virus; design: species or system PRRSV; conditions: vs control ssDNA or between aptamers, FIG. 8a

CC[C@H]1OC(=O)C[C@@H](O)[C@H](C)[C@@H](O[C@@H]2O[C@H](C)[C@@H](O)[C@H](N(C)C)[C@H]2O)[C@@H](CCN2C[C@H](C)C[C@H](C)C2)C[C@@H](C)C(=O)/C=C/C(C)=C/[C@@H]1CO[C@@H]1O[C@H](C)[C@@H](O)[C@@H](OC)[C@H]1OC [Tilmicosin, reference compound]
Reduction Factor ([1]; Table 2, administered once with the virus, intra-nasal): 2.6 | Δ (log TCID50), reduction of virus titer ([1]; administered once together with the virus, intra-nasal, Tilmicosin 60 mg/pig (1 mg/kg), A505 15 ug/Kg): 0.42 log TCID50 | reduction in virus burden ([1]; administered once with the virus, intra-nasal): 2.6 fold

B1: PEU-842: ssDNA aptamer binding type 1 (Lelystad) PRRSV M-S-S-GP5 complex (nucleic acid)
DNA: GGGCGACCCTGAAGAGGACCAGAAGCACGGACCACACACAGCGTATCGAAACGGTGAAAGCCGTAGGTTGCCC
modifications: DNA, backbone and methylation of C not given here
binding to the M-S-S-GP5 complex/heterodimer [2]: binding capacity to the M-S-S-GP5 complex; also recorded: found to bind the M-S-S-GP5 heterodimer | binding capabilities from biosensing and therapeutic perspectives [3]: good binding capabilities

B2: PEU-499: ssDNA aptamer binding type 1 (Lelystad) PRRSV M-S-S-GP5 complex (nucleic acid)
DNA: GGGCGACCCTGAAGAGTACACACGGGACACACACACACTCACTAGACGAAACGGTGAAAGCCGTAGGTTGCCC
modifications: DNA, backbone and methylation of C not given here
binding to the M-S-S-GP5 complex/heterodimer [2]: binding capacity to the M-S-S-GP5 complex; also recorded: found to bind the M-S-S-GP5 heterodimer | binding capabilities from biosensing and therapeutic perspectives [3]: good binding capabilities

B3: PEU-424: ssDNA aptamer binding type 1 (Lelystad) PRRSV M-S-S-GP5 complex (nucleic acid)
DNA: GGGCGACCCTGAAGAGGATGTTGATAGAGCGCCGACCACACACGCACGAAACGGTGAAAGCCGTAGGTTGCCC
modifications: DNA, backbone and methylation of C not given here
binding to the M-S-S-GP5 complex/heterodimer [2]: binding capacity to the M-S-S-GP5 complex; also recorded: found to bind the M-S-S-GP5 heterodimer | binding capabilities from biosensing and therapeutic perspectives [3]: good binding capabilities

B4: PEU-852: ssDNA aptamer binding type 1 (Lelystad) PRRSV M-S-S-GP5 complex (nucleic acid)
DNA: GGGCGACCCTGAAGAGGACACTGCACGTACACAACGAGGATGAACACGAAACGGTGAAAGCCGTAGGTTGCCC
modifications: DNA, backbone and methylation of C not given here
binding to the M-S-S-GP5 complex/heterodimer [2]: binding capacity to the M-S-S-GP5 complex; also recorded: found to bind the M-S-S-GP5 heterodimer | binding capabilities from biosensing and therapeutic perspectives [3]: good binding capabilities

B5: A508: ssDNA aptamer binding type 2 PRRSV M-S-S-GP5 complex (nucleic acid)
DNA: GGGCGACCCTGAAGAGACTGGTGAGTTAATGTTTTTTCTTAGCCTTGTATCGAAACGGTGAAAGCCGTAGGTTGCCC
modifications: DNA, backbone and methylation of C not given here
binding capabilities from biosensing and therapeutic perspectives [4]: highest binding capabilities | change in lung virus titer [1]: less effective than A505 was still capable of reducing the lung virus titer | in-vitro infectivity of the viruses / cell mortality [5]: capable of reducing the in-vitro infectivity of the viruses | binding to the M-S-S-GP5 complex/heterodimer [6]: highly significant differences from the control ssDNA; also recorded: binding capacity to the M-S-S-GP5 complex; also recorded: found to bind the M-S-S-GP5 heterodimer | binding level to the intact virus [7]: significant binding

B6: A501: ssDNA candidate aptamer for type 2 PRRSV M-S-S-GP5 complex; used as control irrelevant nucleotide in Example 4 (nucleic acid)
DNA: GGGCGACCCTGAAGAGAAAGGTGAGTTTATTGCGGGGGTTATTTATTGCTTCGAAACGGTGAAAGCCGTAGGTTGCCC
modifications: DNA, backbone and methylation of C not given here
change in lung virus titer [1]: insignificant change in the viral titer

B7: PEU-962: ssDNA aptamer binding type 1 (Lelystad) PRRSV M-S-S-GP5 complex (nucleic acid)
DNA: GGGCGACCCTGAAGAGGATAGACAATAGCACACCACGCCCCTGCCACGAAACGGTGAAAGCCGTAGGTTGCCC
modifications: DNA, backbone and methylation of C not given here
binding to the M-S-S-GP5 complex/heterodimer [2]: binding capacity to the M-S-S-GP5 complex; also recorded: found to bind the M-S-S-GP5 heterodimer | binding capabilities from biosensing and therapeutic perspectives [3]: good binding capabilities

B8: A507: ssDNA aptamer binding type 2 PRRSV M-S-S-GP5 complex (nucleic acid)
DNA: GGGCGACCCTGAAGAGGTTTGCATATTATAGTTATAGGAGGTGTGTAATGGACGAAACGGTGAAAGCCGTAGGTTGCCC
modifications: DNA, backbone and methylation of C not given here
binding capabilities from biosensing and therapeutic perspectives [4]: highest binding capabilities | binding to the M-S-S-GP5 complex/heterodimer [6]: binding capacity to the M-S-S-GP5 complex; also recorded: found to bind the M-S-S-GP5 heterodimer
